Results taken from patent US20250353917A1 (SYSTIMMUNE, published 2025).
Residue numbers refer to the chain shown, from its start. Each block holds one binder with its values, some of them ahead of it.

How the values were obtained:
[1] = biological target: T1, soluble recombinant extracellular domain of human EGFR (human, UniProt P00533 25-645); test: BLI (Octet), mAb on AHC sensors, soluble EGFR extracellular domain
T1 construct: extracellular domain
Method: (§1) Fc-containing protein was captured to anti-human Fc (AHC) sensor tips by loading for 180 seconds at 10 μg/ml. Alternatively, His-tagged proteins were covalently coupled at 10 ug/ml to AR2G tips using manufacturer protocol. After a 60-second baseline step, a 180- to 300-second association phase with serial dilutions (0-200 nM; 1:2.5 dilution factor) or a single 100 nM concentration of purified human EGFR in assay buffer (phosphate-buffered saline containing 0.1% BSA, 0.05% Tween20) was performed, followed by a 300- to 600—second dissociation phase in assay buffer. Regeneration was achieved using 10 mM glycine, pH 1.5. Binding curves were globally fit to a 1:1 model to extract the dissociation constants, KD. Binding kinetics for each protein were assessed in duplicate, with tabulated values reported as average±standard deviation.

[2] = biological target: T1, soluble recombinant extracellular …; test: BLI (Octet), scFv-monoFc on AHC sensors, serial dilutions of EGFR extracellular domain;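 also: EGFR analyte titrated 0 to 200 nM, association 180–300 s then dissociation 300–600 s in PBS with 0.1% BSA and 0.05% Tween20, global 1:1 fit, duplicate means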
Method: as §1
(§2) The monoFc domain was used to load proteins onto anti-human Fc (AHC) sensors, followed by binding of scFv to serial dilutions of the extracellular domain of human EGFR.

[3] = biological target: T1, soluble recombinant extracellular …; test: BLI of scFv-monoFc proteins, against wild-type cetuximab scFv-monoFc
Method: as §1, §2

B1: SI-79C3 (antibody, human IgG1, kappa, V domains shown)
VH: QVQLQQSGPGLVKPSETLSITCTVSGFSLTNYGVHWIRQAPGKGLEWLGVIWSGGNTDYNTPFTSRFTITKDNSKNQVYFKLRSVRADDTAIYYCARALTYYDYEFAYWGQGTLVTVSS
VL: EIVLTQSPSTLSVSPGERATFSCRASQSIGTNIHWYQQKPGKPPRLLIKYASESISGIPDRFSGSGSGTEFTLTISSVQSEDFAVYYCQQNNNWPTTFGPGTKLTVLR
notes: Humanized version H7 in IgG format; also called H7; humanized H7 mAb
- Kd [1]: 2.41 nM
- koff [1]: 0.000812 s⁻¹
- kon [1]: 337000 M⁻¹ s⁻¹

B2: SI-79SF5 (Fc fusion)
chain: DIVLTQSPSSLSVSPGERVTISCRASQSIGTNIHWYQQKPGQAPRLLIKYASESISGIPSRFSGSGSGTDFTLTISSVESEDFAVYYCQQNNNWPTTFGQGTKLEIKGGGGSGGGGSGGGGSGGGGSQVQLVESGPGLVQPSGSLSLTCTVSGFSLTNYGVHWVRQAPGKGLEWVGVIWSGGNTDYNTPFTSRFTISKDNSKNQVYLKMNSLRAEDTAVYYCARALTYYDYEFAYWGQGTLVTVSSGSGGSPVAGPSVFLFPPKPKDTLMISRTPEVTCVVVDVSHEDPEVKFNWYVDGVEVHNAKTKPREEQYASTYRVVSVLTVLHQDWLNGKEYKCKVSNKALPAPIEKTISKAKGQPREPQVYTLPPSRDELTKNQVSLRCHVKGFYPSDIAVEWESNGQPENNYKTTKPVLDSDGSFFLYSTLTVDKSRWQQGNVFSCSVLHEALHNHYTQKSLSLSPGK
notes: also called H8; H8 scFv-monoFc
- Kd [2]: 6.79 nM
- koff [2]: 0.00393 s⁻¹
- kon [2]: 571000 M⁻¹ s⁻¹
- fold decrease in binding affinity [3]: 2 fold

B3: SI-79SF7 (Fc fusion)
chain: B2 chain with E105T, I106V, K107L
notes: also called H9; H9 scFv-monoFc
- Kd [2]: 6.92 nM
- koff [2]: 0.00395 s⁻¹
- kon [2]: 563000 M⁻¹ s⁻¹
- fold decrease in binding affinity [3]: 2 fold

B4: SI-79SF8 (Fc fusion)
chain: DIVLTQSPATLSVSPGERATLSCRASQSIGTNIHWYQQKPGQAPRLLIKYASESISGIPSRFSGSGSGTDFTLTISSVQSEDFAVYYCQQNNNWPTTFGQGTKLEIKGGGGSGGGGSGGGGSGGGGSQVQLQESGPGLVKPSESLSLTCTVSGFSLTNYGVHWVRQPPGKGLEWIGVIWSGGNTDYNTPFTSRVTISKDNSKNQVSLKMNSLTAADTAVYYCARALTYYDYEFAYWGQGTLVTVSSGSGGSPVAGPSVFLFPPKPKDTLMISRTPEVTCVVVDVSHEDPEVKFNWYVDGVEVHNAKTKPREEQYASTYRVVSVLTVLHQDWLNGKEYKCKVSNKALPAPIEKTISKAKGQPREPQVYTLPPSRDELTKNQVSLRCHVKGFYPSDIAVEWESNGQPENNYKTTKPVLDSDGSFFLYSTLTVDKSRWQQGNVFSCSVLHEALHNHYTQKSLSLSPGK
notes: also called H10; H10 scFv-monoFc
- Kd [2]: 6.77 nM
- koff [2]: 0.00458 s⁻¹
- kon [2]: 665000 M⁻¹ s⁻¹
- fold decrease in binding affinity [3]: 2 fold

B6: SI-79SF3 (Fc fusion)
chain: EIVMTQSPSTLSASVGDRVIITCRASQSIGTNIHWYQQKPGKAPKLLIYYASESISGIPSRFSGSGSGAEFTLTISSLQPDDFATYYCQQNNNWPTTFGQGTKLTVLGGGGSGGGGSGGGGSGGGGSEVQLVESGGGLVQPGGSLRLSCKVSGFSLTNYGVHWVRQAPGKGLEWVGVIWSGGNTDYNTPFTSRFTISRDTSKNTVYLQMNSLRAEDTAVYYCARALTYYDYEFAYWGQGTLVTVSSGSGGSPVAGPSVFLFPPKPKDTLMISRTPEVTCVVVDVSHEDPEVKFNWYVDGVEVHNAKTKPREEQYASTYRVVSVLTVLHQDWLNGKEYKCKVSNKALPAPIEKTISKAKGQPREPQVYTLPPSRDELTKNQVSLRCHVKGFYPSDIAVEWESNGQPENNYKTTKPVLDSDGSFFLYSTLTVDKSRWQQGNVFSCSVLHEALHNHYTQKSLSLSPGK
notes: also called H1; H1 scFv-monoFc
- Kd [2]: 13.1 nM
- koff [2]: 0.00927 s⁻¹
- kon [2]: 718000 M⁻¹ s⁻¹
- fold decrease in binding affinity [3]: 4 fold

Next, values leading:

- Kd [2]: 6.74 nM
- koff [2]: 0.00454 s⁻¹
- kon [2]: 661000 M⁻¹ s⁻¹
- fold decrease in binding affinity [3]: 2 fold
B5: SI-79SF13 (Fc fusion)
chain: B4 chain with E105T, I106V, K107L
notes: also called H11; H11 scFv-monoFc

- Kd [2]: 3.42 nM
- koff [2]: 0.00165 s⁻¹
- kon [2]: 476000 M⁻¹ s⁻¹
B7: SI-79SF9 (Fc fusion)
chain: EIVLTQSPSTLSVSPGERVSFSCRASQSIGTNIHWYQQRTGQPPRLLIKYASESISGIPARFSGSGSGTEFTLTITSVQSEDFAVYYCQQNNNWPTTFGQGTKLDIKGGGGSGGGGSGGGGSGGGGSQVQLLQSGPGLVKPSETLSITCTVSGFSLTNYGVHWIRQAPGKGLEWIGVIWSGGNTDYNTPFTSRFTITKDNSKNQVFFKLRSVRAEDTALYYCARALTYYDYEFAYWGQGTLVTVSSGSGGSPVAGPSVFLFPPKPKDTLMISRTPEVTCVVVDVSHEDPEVKFNWYVDGVEVHNAKTKPREEQYASTYRVVSVLTVLHQDWLNGKEYKCKVSNKALPAPIEKTISKAKGQPREPQVYTLPPSRDELTKNQVSLRCHVKGFYPSDIAVEWESNGQPENNYKTTKPVLDSDGSFFLYSTLTVDKSRWQQGNVFSCSVLHEALHNHYTQKSLSLSPGK
notes: also called H6; H6 scFv-monoFc
